We go through four molecules from PMC13121748, “Phase separation of PGL-3 driven by structured domains that oligomerize and interact with RGG motifs” (EMBO Reports, 2025).

A word on the Kd: it is a measure of binding affinity in units of concentration. A low value points to tighter binding. As usually defined, the stoichiometry N is the number of molecules, sites or subunits per partner or assembly.

Where “and” joins values, the source holds several entries; their conditions need not be identical. Equal entries are not always repeated.

For data set [1], the target named is PGL-3(D1-D2) (C. elegans) (UniProt G5EBV6).
Data set [2] shares this target. This is another data set of the same source.
Data set [3] shares this target. This is another data set of the same source.
Data set [4] addresses T1, PGL-3(D1) (C. elegans, trace-labelled with DyLight 488 (NHS ester) in the FA crosslinking; biotinylated with NHS-PEG12-Biotin when immobilised in BLI).
T1 chain: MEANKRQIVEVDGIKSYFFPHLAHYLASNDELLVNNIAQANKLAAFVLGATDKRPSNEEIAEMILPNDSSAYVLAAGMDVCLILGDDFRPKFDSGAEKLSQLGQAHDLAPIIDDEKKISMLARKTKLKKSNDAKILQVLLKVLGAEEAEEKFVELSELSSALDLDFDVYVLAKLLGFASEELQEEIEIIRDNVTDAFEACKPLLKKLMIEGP
The data set is described as follows: BLI. For orientation: Biolayer interferometry detects binding as a change in optical thickness at a sensor tip.

For data set [5], the target named is T1, PGL-3(D1). The data set is described as follows: BLI; biotinylated D1 on streptavidin tips, RGG peptide in solution; 125 mM NaCl, 0.01 mg/ml BSA, 0.02% Tween-20, 25 mM HEPES pH 7.5; 1:1 binding model; Octet Red96.
Data set [6] concerns the molecule itself. The data set is described as follows: cross-linking; XL-MS: 7.5 uM full-length PGL-3, 2 mM DSBU, 1 h room temperature, 25 mM HEPES pH 7.5, 125 mM NaCl (condensing) or 500 mM NaCl (non-condensing); trypsin digest, LC-MS/MS, Scout search.
Data set [7] deals with the molecule itself. As to the kind of experiment: mass photometry; unlabeled D1-D2 at 50 to 100 nM in 125 mM NaCl, 25 mM HEPES pH 7.5, TwoMP (Refeyn).
Data set [8] addresses T2, PGL-3 RGG region peptide (native) (Caenorhabditis elegans, UniProt G5EBV6 623-693).
T2 sequence: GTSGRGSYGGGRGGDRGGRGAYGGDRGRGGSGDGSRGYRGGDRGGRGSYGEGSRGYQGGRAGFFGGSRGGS
The data set is described as follows: BLI; RNA on tip, RGG peptide in solution; 1:1 fit; KD ~2-fold higher than RGG:D1, value not given; BLI: 25 mM HEPES pH 7.5, 125 mM NaCl, 0.01 mg/ml BSA, 0.02% Tween-20, temperature not stated; condensate assays at 125 mM NaCl. Particulars: tags: none; unlabeled in BLI; label: 5' biotin; single strand.

B1: PGL-3(RGG) synthetic peptide spanning the RGG region (peptide)
chain: GTSGRGSYGGGRGGDRGGRGAYGGDRGRGGSGDGSRGYRGGDRGGRGSYGEGSRGYQGGRAGFFGGSRGGS
modifications: trace-labelled with Alexa Fluor 647 (NHS ester) in the FA crosslinking and partitioning; biotinylated with NHS-PEG12-Biotin when immobilised in BLI
B1 gave a partition coefficient of the RGG peptide in D1-D2 condensates (5 uM each, in trans) in data set [1] of 1.3. Moreover, the fraction of D1-D2 in the pellet (dense phase) with equimolar RGG peptide against buffer control in data set [2] is 15%. Moreover, the viscosity of D1-D2 condensates formed with equimolar RGG peptide against buffer (embedded beads) in data set [3] is 1.25 fold. In the data set with PGL-3(D1) [4], this molecule gave a Kd of 1.63 µM. In the data set with PGL-3(D1) [5], this molecule came in with a fold faster koff than RGG:poly(U) RNA of 10 fold, a fold faster kon than RGG:poly(U) RNA of 20 fold and a fold lower KD than RGG:poly(U) RNA of 2 fold.

B2: full-length, untagged PGL-3 (natural protein, C. elegans, UniProt G5EBV6 1-693, looked up)
chain: MEANKRQIVEVDGIKSYFFPHLAHYLASNDELLVNNIAQANKLAAFVLGATDKRPSNEEIAEMILPNDSSAYVLAAGMDVCLILGDDFRPKFDSGAEKLSQLGQAHDLAPIIDDEKKISMLARKTKLKKSNDAKILQVLLKVLGAEEAEEKFVELSELSSALDLDFDVYVLAKLLGFASEELQEEIEIIRDNVTDAFEACKPLLKKLMIEGPKIDSVDPFTQLLLTPQEESIEKAVSHIVARFEEASAVEDDESLVLKSQLGYQLIFLVVRSLADGKRDASRTIQSLMPSSVRAEVFPGLQRSVFKSAVFLASHIIQVFLGSMKSFEDWAFVGLAEDLESTWRRRAIAELLKKFRISVLEQCFSQPIPLLPQSELNNETVIENVNNALQFALWITEFYGSESEKKSLNQLQFLSPKSKNLLVDSFKKFAQGLDSKDHVNRIIESLEKSSSSEPSATAKQTTTSNGPTTVSTAAQVVTVEKMPFSRQTIPCEGTDLANVLNSAKIIGESVTVAAHDVIPEKLNAEKNDNTPSTASPVQFSSDGWDSPTKSVALPPKISTLEEEQEEDTTITKVSPQPQERTGTAWGSGDATPVPLATPVNEYKVSGFGAAPVASGFGQFASSNGTSGRGSYGGGRGGDRGGRGAYGGDRGRGGSGDGSRGYRGGDRGGRGSYGEGSRGYQGGRAGFFGGSRGGS
notes: PGL-3, C. elegans P granule protein, full length (D1, D2, internal IDR, C-terminal RGG region; residues to 693); also called PGL-3(FL); FL; not shown: 6xHis-MBP-6xHis, N-terminal, cleaved
Turning to B2, the binding result in data set [6] is reported as “binds”.

B3: PGL-3(D1-D2) (domain or fragment, C. elegans, UniProt G5EBV6 1-447, looked up)
chain: MEANKRQIVEVDGIKSYFFPHLAHYLASNDELLVNNIAQANKLAAFVLGATDKRPSNEEIAEMILPNDSSAYVLAAGMDVCLILGDDFRPKFDSGAEKLSQLGQAHDLAPIIDDEKKISMLARKTKLKKSNDAKILQVLLKVLGAEEAEEKFVELSELSSALDLDFDVYVLAKLLGFASEELQEEIEIIRDNVTDAFEACKPLLKKLMIEGPKIDSVDPFTQLLLTPQEESIEKAVSHIVARFEEASAVEDDESLVLKSQLGYQLIFLVVRSLADGKRDASRTIQSLMPSSVRAEVFPGLQRSVFKSAVFLASHIIQVFLGSMKSFEDWAFVGLAEDLESTWRRRAIAELLKKFRISVLEQCFSQPIPLLPQSELNNETVIENVNNALQFALWITEFYGSESEKKSLNQLQFLSPKSKNLLVDSFKKFAQGLDSKDHVNRIIESLEK
modifications: unlabeled in mass photometry; trace-labelled with DyLight 488 (partitioning) or Alexa Fluor 647 (pelleting) by NHS ester
notes: PGL-3, C. elegans, the first 447 amino acids, which span the folded domains D1 and D2; also called D1-D2 domain; not shown: 6xHis-MBP-6xHis, N-terminal, cleaved
As for B3, in data set [7], the “stoichiometry N” value is 2 and 4 and 6.
On to UUUUUUUUUUUUUUUUUUUUUUUUUUUUUU (ssRNA) [poly(U) 30-nt RNA], for which the binding result in data set [8] was “binds”.
